Measurements from patent US20150290315A1.

Experiments:
[1] = target: nectin-1 stably expressed on B78-H1-C10 cells (UniProt Q15223); assay: cell-based or functional assay
[2] = target: HVEM stably expressed on B78-H1-A10 cells (UniProt Q92956); assay: cell-based or functional assay
Chain of UniProt Q92956 (Q92956 39-283 limits assumed): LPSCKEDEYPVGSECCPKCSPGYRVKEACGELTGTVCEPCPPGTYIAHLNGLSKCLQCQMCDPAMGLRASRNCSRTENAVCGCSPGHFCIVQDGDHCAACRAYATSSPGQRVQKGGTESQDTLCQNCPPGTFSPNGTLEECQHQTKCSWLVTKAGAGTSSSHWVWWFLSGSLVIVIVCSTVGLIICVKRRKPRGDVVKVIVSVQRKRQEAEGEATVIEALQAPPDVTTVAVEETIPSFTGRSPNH

Chain of UniProt Q15223 (Q15223 31-517 limits assumed): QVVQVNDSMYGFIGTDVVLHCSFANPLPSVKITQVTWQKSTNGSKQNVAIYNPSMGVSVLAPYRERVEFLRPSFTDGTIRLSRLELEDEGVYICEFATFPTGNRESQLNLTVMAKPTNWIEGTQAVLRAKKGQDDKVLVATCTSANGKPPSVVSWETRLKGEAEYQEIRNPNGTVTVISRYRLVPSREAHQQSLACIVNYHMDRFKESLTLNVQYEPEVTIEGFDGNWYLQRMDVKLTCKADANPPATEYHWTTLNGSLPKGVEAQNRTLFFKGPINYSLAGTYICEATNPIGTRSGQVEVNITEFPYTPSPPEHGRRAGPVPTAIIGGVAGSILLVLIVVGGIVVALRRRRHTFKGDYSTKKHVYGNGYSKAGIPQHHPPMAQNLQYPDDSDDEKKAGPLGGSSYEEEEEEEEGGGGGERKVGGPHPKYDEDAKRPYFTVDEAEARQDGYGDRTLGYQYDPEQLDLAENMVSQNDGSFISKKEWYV

Substance: HSV-1 strain KOS glycoprotein D with the A3C mutation, as carried by the KOS-gDA3C virus (from UniProt A1Z0Q5 26-394)
- entry of virus into C10 cells (plaques counted after citrate wash) [1]: 70 % reduction
- entry of virus into A10 cells (plaques counted after citrate wash) [2]: 50 % reduction
